B1: VPS39 (parent)
chain: QQVKCIITEEKVCMVCKKKIGNSA
B2: ZNF24 (parent)
chain: YGETCFPKGRFERKRNPSRKKQHI

Variants of: B1
Test: protein stability index of a GFP-peptide fusion (GPS, HEK-293T) (PSI 1-6); higher = more stable
Details: c terminus: a fixed tail appended
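Further: lentivirally expressed fusions sorted by FACS into six bins by GFP to DsRed ratio, PSI derived from sequencing read proportions per bin multiplied by bin number.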

Protein stability index of substitutions, site by site:
V3: F 1.89, N 2.8, L 2.77, G 3.01, D 3.92, A 2.81, S 3.17, K 2.89, E 3.47, I 2.38, T 2.82, C 4.46, R 2.5, Y 2.58, H 5.16, Q 3.32, P 3.49, M 2.8, W 1.49
T8: F 1.52, H 2.81, E 3.48, A 2.45, G 3.42, D 3.08, C 2.48
C5: E 3.75, G 2.82, T 3.16, P 3.32, V 2.22, H 3.21, R 3.48, M 1.99, I 2.24, N 2.79, F 1.96, Q 3.07, D 3.86, K 3.61, L 2.34, Y 2.69, W 1.94, A 3.02
Q2: R 2.59, A 2.94, Y 2.37, P 2.77, N 2.26, K 2.59, F 2.17, L 2.4, C 4.17, I 1.45, E 3.37, H 3.05, S 3.77, M 2.93, D 3.15, G 2.32, W 2.72, T 2.61, V 3.17
Q1: S 2.57, N 2.91, Y 1.64, F 1.49, W 1.98, I 1.9, L 2.62, R 2.24, D 3.69, H 2.59, K 1.88, C 2.4, G 3.05, A 1.95, V 1.11, E 2.67, T 2.52, P 2.79, M 1.83
K4: Q 2.77, W 2.25, L 1.77, I 1.19, E 3.28, S 2.22, G 2.81, F 1.42, T 2.44, H 2.44, C 3.6, V 2.19, Y 1.42, M 1.83, P 3.12, A 2.72, N 2.83, R 2.53, D 2.68
I6: E 3.96, L 2.45, V 3.05, A 2.67, W 1.75, N 3.25, T 3.38, H 3.47, F 2.6, C 3.34, S 3.5, P 4.07, M 2.93, Q 3.13, G 2.47, R 2.6, K 3.46, Y 2.49, D 3.82
I7: P 4.23, H 4.39, F 2.97, W 2.46, T 2.69, M 3.54, C 4.47, Q 2.76, L 2.11, G 2.77, V 3.4, Y 3.28, S 3.06, R 2.86, E 3.01, D 3.49, A 3.38, K 2.9, N 2.84

Variants of: B2
Test: as above
Details: c terminus: a fixed tail appended

Protein stability index of substitutions, site by site:
K20: Y 2.76, W 1.99, V 2.66, Q 2.34, I 2.63, T 2.44, H 3.09, M 2.08, D 3.48, R 2.34, S 3.17
P7: S 2.28, K 3.35, W 2.57, I 2.5, R 2.93, T 3.02
R13: M 2.15, E 3.1, Y 2.25, P 3, S 3.14, A 2.96, T 2.3, K 2.9
N16: V 1.94, Y 2.82, K 2.9, Q 2.87, P 2.31, W 2.21, A 2.5, L 2.49, M 2.71, F 2.23, E 2.89, D 2.15
R10: E 3.07, D 3.66, N 2.93, F 2.83, H 2.55, A 2.6, Q 3.38, P 2.56, W 1.71
I24: Y 3, P 2.29, L 2.78, C 2.9, W 2.3, S 2.77, M 2.57, V 3, H 2.93, T 3.42, G 2.64, Q 3.08
S18: K 3.1, A 2.55, T 2.72, V 2.62, L 3.16, M 2.77, H 2.34, W 2.22, P 2.48
F6: R 3.7, K 3.38, D 4.46, I 3.61, V 3.82, M 4.07, E 4.51, P 4.35, A 3.64, Y 4.74, C 3.87, W 1.77
F11: A 3.43, S 3.18, T 3.28, K 3.13, W 2.2, L 2.35, V 2.59, I 2.59, G 3.32
K14: D 3.63, E 3.65, H 2.51, L 2.82, A 3.21, C 2.41, P 3.18, G 2.92, T 2.27, M 2.7, R 2.8, Y 2.89
K21: T 2.97, D 3.11, M 2.08, V 2.2, H 2.73, A 2.78, P 2.61, N 3.23
G9: Q 3.28, I 1.94, T 2.7, M 2.18, S 3, A 2.11, L 2.12, N 3.06, H 2.72, R 2.85, F 2.29
R15: N 3.2, H 2.84, P 3.15, C 2.65, D 3.17, V 2.83, I 2.28, Y 2.02
H23: T 2.43, R 2.73, I 2.57
Q22: S 3.4, I 2.28, N 2.94, W 2.25, T 2.67
P17: W 2.52, Y 2.34, C 2.37, A 2.56
T4: I 3.04, E 3.24, C 2.12, P 1.89, R 3.37, V 3.38, W 1.02, H 2.98, S 3.43
K8: G 2.93, C 1.68, R 2.88, P 2.11
Y1: D 4.25, P 4.1, H 4.11, S 4.4, C 3.45, M 3.99, Q 3.96
C5: Q 3.15, G 2.17, S 3.7, A 3.17, V 3.17, L 3.05, M 2.25, W 2.53, F 3.83
R19: S 3.38, G 2.69, N 2.86, K 2.82
E12: K 2.91, G 3.16, R 3.88, Y 2.46, T 3.16
G2: Q 3.44, R 3.41, P 2.89, C 2.1, T 2.33, D 4.33, K 3.21, Y 2.58, I 1.76, N 3.65
E3: N 1.95, Y 2.37, G 2, L 2.96, A 2.4, K 3.11, C 2.75, S 2.04

Reference: the supplement of paper PMC10567573
